Test results as given in US20200199241A1 (Chugai, published 2020).
Residue numbers refer to the chain shown, from its start.

B1: IgG1-F147 (antibody)
heavy: QVQLQESGPGLVKPSETLSLTCAVSGHSISHDHAWSWVRQPPGEGLEWIGFISYSGITNYNPSLQGRVTISRDNSKNTLYLQMNSLRAEDTAVYYCARSLARTTAMDYWGEGTLVTVSSASTKGPSVFPLAPSSKSTSGGTAALGCLVKDYFPEPVTVSWNSGALTSGVHTFPAVLQSSGLYSLSSVVTVPSSSLGTQTYICNVNHKPSNTKVDKKVEPKSCDKTHTCPPCPAPELLGGPSVFLFPPKPKDTLYISRTPEVTCVVVDVSHEDPEVKFNWYVDGVEVHNAKTKPREEQYNSTYRVVSVLTILHQDWLNGKEYKCKVSNKALPAPIEKTISKAKGQPREPQVYTLPPSRDELTKNQVSLTCLVKGFYPSDIAVEWESNGQPENNYKTTPPVLDSDGSFFLYSKLTVDKSRWQQGNVFSCSVMHEALHYHYTQKSLSLSP
light: not shown
notes: EU numbering; copies: 2 + 2
B2: IgG1-F157 (antibody)
heavy: B1 heavy with Y254M, P259A, I310P, M430L
light: not shown
notes: copies: 2 + 2
B3: IgG1-F167 (antibody)
heavy: B1 heavy with Y254W, V305A, I310V
light: not shown
notes: EU numbering; copies: 2 + 2
B4: IgG1-F160 (antibody)
heavy: B1 heavy with Y254W, I310V, M430I
light: not shown
notes: EU numbering; copies: 2 + 2
B5: IgG1-F175 (antibody)
heavy: B1 heavy with Y254W, I310V, S426A
light: not shown
notes: EU numbering; copies: 2 + 2
B6: IgG1-F166 (antibody)
heavy: B1 heavy with Y254W, T309Q, I310V
light: not shown
notes: EU numbering; copies: 2 + 2
B7: IgG1-F170 (antibody)
heavy: B1 heavy with Y254W, I310V, Q313A
light: not shown
notes: EU numbering; copies: 2 + 2
B8: IgG1-F173 (antibody)
heavy: B1 heavy with Y254W, I310V, E382A
light: not shown
notes: EU numbering; copies: 2 + 2
B9: IgG1-F158 (antibody)
heavy: B1 heavy with Y254M, P259T, I310P, M430L
light: not shown
notes: EU numbering; copies: 2 + 2
B10: IgG1-F163 (antibody)
heavy: B1 heavy with Y254W, I310V, M430F
light: not shown
notes: EU numbering; copies: 2 + 2
B11: IgG1-F165 (antibody)
heavy: B1 heavy with Y254W, D267A, I310V
light: not shown
notes: EU numbering; copies: 2 + 2
B12: IgG1-F168 (antibody)
heavy: B1 heavy with Y254W, I310V, D378A
light: not shown
notes: EU numbering; copies: 2 + 2
B13: IgG1-F171 (antibody)
heavy: B1 heavy with Y254W, I310V, D314A
light: not shown
notes: EU numbering; copies: 2 + 2
B14: IgG1-F174 (antibody)
heavy: B1 heavy with Y254W, I310V, E384A
light: not shown
notes: EU numbering; copies: 2 + 2
B15: IgG1-F164 (antibody)
heavy: B1 heavy with P240A, Y254W, I310V
light: not shown
notes: EU numbering; copies: 2 + 2
B16: IgG1-F169 (antibody)
heavy: B1 heavy with Y254W, V307A, I310V
light: not shown
notes: EU numbering; copies: 2 + 2
B17: IgG1-F149 (antibody)
heavy: B1 heavy with I310L
light: not shown
notes: EU numbering; copies: 2 + 2
B18: IgG1-F159 (antibody)
heavy: B1 heavy with Y254M, P259V, I310P, M430L
light: not shown
notes: EU numbering; copies: 2 + 2
B19: IgG1-F152 (antibody)
heavy: B1 heavy with I310Q
light: not shown
notes: EU numbering; copies: 2 + 2
B20: IgG1-F162 (antibody)
heavy: B1 heavy with Y254W, I310V, M430Y
light: not shown
notes: EU numbering; copies: 2 + 2
B21: IgG1-F154 (antibody)
heavy: B1 heavy with I310T
light: not shown
notes: EU numbering; copies: 2 + 2
B22: IgG1-F172 (antibody)
heavy: B1 heavy with Y254W, I310V, K319A
light: not shown
notes: EU numbering; copies: 2 + 2

target: T1, human FcRn (soluble human FcRn complexed with β2-microglobulin) (human, UniProt P61769 21-119, limits assumed); assay: SPR, pH 7.0;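 further: antibodies captured on a Protein L sensor chip with human FcRn injected as analyte, KD calculated from fitted association and dissociation rate constants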
T1 construct: also called hFcRn

| Kd | Binder |
| --- | --- |
| 240 nM | B1 |
| 150 nM | B2 |
| 290 nM | B3 |
| 850 nM | B4 |
| 270 nM | B5 |
| 150 nM | B6 |
| 170 nM | B7 |
| 770 nM | B8 |
| 59 nM | B9 |
| 420 nM | B10 |
| 290 nM | B11 |
| 320 nM | B12 |
| 190 nM | B13 |
| 340 nM | B14 |
| 370 nM | B15 |
| 290 nM | B16 |
| 190 nM | B17 |
| 44 nM | B18 |
| 270 nM | B19 |
| 160 nM | B20 |
| 180 nM | B21 |
| 220 nM | B22 |
